Values belong to the molecule of their own block, whether it stands above or below them.
Tests used:
Lb-PepA = target: T1, Lb-PepA (Lactobacillus delbrueckii, UniProt F0HXE4); test: p-nitroaniline release at […] nm, Michaelis-Menten nonlinear fit; format: biochemical; conditions: substrate inhibition constant, apparent; 50 mM Na/K-phosphate pH 6.0, 60 °C, 0.625 mM CoCl2
T1 construct: full length (361 aa, 1086 bp gene), C-terminal His6-tag kept, pET20b(+), E. coli BL21(DE3), Ni-NTA purified
T1 sequence (F0HXE4 1-361): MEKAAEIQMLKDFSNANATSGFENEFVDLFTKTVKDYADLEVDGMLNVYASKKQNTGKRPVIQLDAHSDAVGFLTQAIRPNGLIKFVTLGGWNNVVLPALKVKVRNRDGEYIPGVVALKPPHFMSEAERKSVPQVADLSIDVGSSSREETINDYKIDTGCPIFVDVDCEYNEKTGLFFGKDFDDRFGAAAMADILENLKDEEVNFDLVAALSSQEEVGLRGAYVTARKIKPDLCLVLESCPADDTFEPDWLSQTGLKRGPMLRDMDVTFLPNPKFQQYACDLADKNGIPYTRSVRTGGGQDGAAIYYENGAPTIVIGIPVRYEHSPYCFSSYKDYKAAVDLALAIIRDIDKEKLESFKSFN

Lc-PepA [1] = target: T2, Lc-PepA (Lactococcus lactis, UniProt Q9CIH3); test: as above; format: biochemical; conditions: substrate inhibition constant, apparent; 50 mM Na/K-phosphate pH 8.0, 65 °C, 0.3125 mM CoCl2
T2 construct: full length (355 aa, 1068 bp gene), C-terminal His6-tag kept, pET20b(+), E. coli BL21(DE3), Ni-NTA purified
T2 sequence (Q9CIH3 1-355): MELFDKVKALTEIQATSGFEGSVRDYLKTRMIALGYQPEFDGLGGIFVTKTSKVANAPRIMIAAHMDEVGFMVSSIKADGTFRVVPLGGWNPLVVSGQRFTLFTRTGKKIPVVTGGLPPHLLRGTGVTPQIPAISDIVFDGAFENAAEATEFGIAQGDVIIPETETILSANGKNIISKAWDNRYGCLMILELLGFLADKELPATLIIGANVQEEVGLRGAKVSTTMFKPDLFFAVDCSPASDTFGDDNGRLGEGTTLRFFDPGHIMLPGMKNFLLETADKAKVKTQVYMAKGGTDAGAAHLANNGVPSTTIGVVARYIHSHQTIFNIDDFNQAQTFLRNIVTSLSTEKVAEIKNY

Lc-PepA [2] = target: T2, Lc-PepA; test: as above; format: biochemical; conditions: substrate inhibition constant, apparent; 50 mM Na/K-phosphate pH 8.0, 65 °C, 0.3125 mM CoCl2; remark: listed apart in the source
Lc-PepA [3] = target: T2, Lc-PepA; test: product inhibition, p-nitroaniline release at […] nm; format: biochemical
[4] = target: Glutamyl (aspartyl)-specific aminopeptidase A (PepA) from Lactobacillus delbrueckii ssp. lactis DSM 20072 (Lactobacillus delbrueckii ssp. lactis DSM 20072); test: SEC; Superdex 200 10/300 GL, 30 uL at 1 mg/mL, 0.75 mL/min, 10 mM Na/K-phosphate pH 6.0 with 150 mM NaCl; native mass against calibration proteins, divided by the monomer's mass
[5] = target: Glutamyl (aspartyl)-specific aminopeptidase A (PepA) from Lactococcus lactis ssp. lactis DSM 20481 (Lactococcus lactis ssp. lactis DSM 20481) (UniProt Q48677); test: SEC; Superdex 200 10/300 GL, 30 uL at 1 mg/mL, 0.75 mL/min, 10 mM Na/K-phosphate pH 8.0 with 150 mM NaCl; native mass against calibration proteins, divided by the monomer's mass
purified protein [6] = substrate: N[C@@H](CC(=O)O)C(=O)Nc1ccc([N+](=O)[O-])cc1; test: purified protein; format: biochemical, Lactococcus lactis; conditions: apparent, 50 mM Na/K-phosphate pH 8.0, 65 °C, 0.3125 mM CoCl2, about 5% DMSO, fit with substrate inhibition
purified protein [7] = substrate: N[C@@H](CCC(=O)O)C(=O)Nc1ccc([N+](=O)[O-])cc1; test: purified protein; format: biochemical, Lactococcus lactis; conditions: apparent, 50 mM Na/K-phosphate pH 8.0, 65 °C, 0.3125 mM CoCl2, about 5% DMSO, fit with substrate inhibition
purified protein [8] = substrate: N[C@@H](CC(=O)O)C(=O)Nc1ccc([N+](=O)[O-])cc1; test: purified protein; format: biochemical, Lactobacillus delbrueckii; conditions: apparent, 50 mM Na/K-phosphate pH 6.0, 60 °C, 0.625 mM CoCl2, about 5% DMSO, fit with substrate inhibition
purified protein [9] = substrate: N[C@@H](CCC(=O)O)C(=O)Nc1ccc([N+](=O)[O-])cc1; test: purified protein; format: biochemical, Lactobacillus delbrueckii; conditions: apparent, 50 mM Na/K-phosphate pH 6.0, 60 °C, 0.625 mM CoCl2, about 5% DMSO, substrate tested only up to 7.3 mM (solubility)

H-Asp-pNA / KIS [mM] (Lb-PepA): 6.66 mM | H-Asp-pNA / KIS [mM] (Lc-PepA [1]): 41.9 mM
Molecule: N[C@@H](CC(=O)O)C(=O)Nc1ccc([N+](=O)[O-])cc1 [H-Asp-pNA]

H-Glu-pNA / KIS [mM] (Lc-PepA [2]): 3.61 mM
Molecule: N[C@@H](CCC(=O)O)C(=O)Nc1ccc([N+](=O)[O-])cc1 [H-Glu-pNA]

activity at 10000 µM (Lc-PepA [3]): 78.2%
Molecule: N[C@@H](CC(=O)O)C(=O)O [L-Asp]

activity at 10000 µM (Lc-PepA [3]): 82.3%
Molecule: N[C@@H](CCC(=O)O)C(=O)O [L-Glu]

stoichiometry N [4]: 12
Molecule: Glutamyl (aspartyl)-specific aminopeptidase A (PepA) from Lactobacillus delbrueckii ssp. lactis DSM 20072 (enzyme)

stoichiometry N [5]: 12
Molecule: Glutamyl (aspartyl)-specific aminopeptidase A (PepA) from Lactococcus lactis ssp. lactis DSM 20481 (from UniProt Q48677 1-355) (enzyme)

B1: Lc-PepA (Lactococcus lactis subsp. lactis Il1403) (protein)
chain: T2 sequence (Q9CIH3 1-355)
notes: full length (355 aa, 1068 bp gene), C-terminal His6-tag kept, pET20b(+), E. coli BL21(DE3), Ni-NTA purified
Km (purified protein [6]): 340 µM | Km (purified protein [7]): 190 µM

B2: Lb-PepA (Lactobacillus delbrueckii subsp. lactis DSM 20072) (protein)
chain: T1 sequence (F0HXE4 1-361)
notes: full length (361 aa, 1086 bp gene), C-terminal His6-tag kept, pET20b(+), E. coli BL21(DE3), Ni-NTA purified
Km (purified protein [8]): 1210 µM | Km (purified protein [9]): 25200 µM
